The values below come from US20260250410A1 (SICHUAN HUIYU PHARMACEUTICAL, published 2026).

Assay in all cases: SPR (Caterra), antigen immobilized
One experiment has as its target T1, MsCDCP1 (mouse, UniProt Q5U462 30-666).
T1 construct: extracellular domain; also called mouse CDCP1; not shown: Fc or his tag
T1 sequence (looked up): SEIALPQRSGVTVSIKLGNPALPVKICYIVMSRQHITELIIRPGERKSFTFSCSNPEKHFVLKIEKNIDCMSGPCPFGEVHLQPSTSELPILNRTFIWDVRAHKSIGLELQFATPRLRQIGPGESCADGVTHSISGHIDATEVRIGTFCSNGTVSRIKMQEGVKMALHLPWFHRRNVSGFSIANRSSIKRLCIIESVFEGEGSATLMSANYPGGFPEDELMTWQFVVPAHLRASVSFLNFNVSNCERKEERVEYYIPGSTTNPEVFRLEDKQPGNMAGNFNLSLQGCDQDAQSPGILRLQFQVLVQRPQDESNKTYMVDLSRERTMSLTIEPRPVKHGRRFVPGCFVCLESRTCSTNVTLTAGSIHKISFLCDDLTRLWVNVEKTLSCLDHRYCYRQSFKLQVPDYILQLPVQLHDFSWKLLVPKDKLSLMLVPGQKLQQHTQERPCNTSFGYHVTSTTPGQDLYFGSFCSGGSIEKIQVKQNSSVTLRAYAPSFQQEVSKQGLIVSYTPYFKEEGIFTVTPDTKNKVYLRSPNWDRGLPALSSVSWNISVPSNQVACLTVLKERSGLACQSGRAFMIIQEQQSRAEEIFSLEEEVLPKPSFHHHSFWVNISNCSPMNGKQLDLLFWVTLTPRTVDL
Here is the method:
(§1) The humanized anti-CDCP1 antibodies obtained from Example 11 were subjected to gene cloning, constructed into pTT5 expression vector for a small amount of expression in CHO cells (Expi-CHOS: Gibco A29127), and purified with an Fc affinity column (AT Protein A Diamond Plus. No. AA402312). Antibody purity was analyzed by HPLC and determined by Nanodrop. High-throughput affinity assay was carried out for a small amount of antibodies by Caterra.
(§2) Further, Partial anti-CDCP1 humanized antibodies were selected for expression, and then the affinity of the antibodies to the antigens Hu-CDCP1-A, Hu-CDCP1-B, Cyno-CDCP1, and Ms-CDCP1 was detected according to the above affinity detection method.

The next experiment has as its target T2, HuCDCP1-B (human, UniProt Q9H5V8 343-667).
T2 construct: range 343-667; expressed in HEK-293T, purified by Fc/his tag; also called human CDCP1-B; membrane-proximal region of CDCP1; not shown: Fc or his tag
T2 sequence (looked up): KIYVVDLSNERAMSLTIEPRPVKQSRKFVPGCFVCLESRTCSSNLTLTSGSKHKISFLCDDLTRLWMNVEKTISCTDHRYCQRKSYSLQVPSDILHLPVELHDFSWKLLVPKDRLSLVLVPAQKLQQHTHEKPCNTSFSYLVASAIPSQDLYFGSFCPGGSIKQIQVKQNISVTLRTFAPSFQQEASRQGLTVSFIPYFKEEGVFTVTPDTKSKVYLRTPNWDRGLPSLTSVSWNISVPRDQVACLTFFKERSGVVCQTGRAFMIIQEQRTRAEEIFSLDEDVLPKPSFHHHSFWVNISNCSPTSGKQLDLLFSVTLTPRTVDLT
The method, then: as §1, §2

The target in a further experiment is T3, CynoCDCP1 (Macaca fascicularis, UniProt A0A2K5VLA8 30-667).
T3 construct: extracellular domain; also called Macaca fascicularis CDCP1; monkey CDCP1; not shown: Fc or his tag
T3 sequence: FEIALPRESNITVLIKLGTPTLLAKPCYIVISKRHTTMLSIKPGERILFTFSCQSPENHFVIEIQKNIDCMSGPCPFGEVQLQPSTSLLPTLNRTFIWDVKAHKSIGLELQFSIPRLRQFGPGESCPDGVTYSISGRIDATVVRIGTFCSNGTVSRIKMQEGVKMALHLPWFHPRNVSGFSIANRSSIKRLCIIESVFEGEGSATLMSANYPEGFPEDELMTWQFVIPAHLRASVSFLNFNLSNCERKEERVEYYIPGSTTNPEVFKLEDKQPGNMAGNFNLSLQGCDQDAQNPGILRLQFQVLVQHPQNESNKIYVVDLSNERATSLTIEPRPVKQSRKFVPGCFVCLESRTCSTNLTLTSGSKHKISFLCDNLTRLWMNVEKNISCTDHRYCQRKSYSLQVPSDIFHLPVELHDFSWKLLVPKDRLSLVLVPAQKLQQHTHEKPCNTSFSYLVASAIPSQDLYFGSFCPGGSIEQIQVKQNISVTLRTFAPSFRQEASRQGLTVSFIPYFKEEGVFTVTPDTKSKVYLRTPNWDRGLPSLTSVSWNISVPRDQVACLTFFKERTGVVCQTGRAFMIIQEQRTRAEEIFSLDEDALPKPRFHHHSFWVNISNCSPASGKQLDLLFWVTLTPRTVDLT
Here is the method: as §1, §2

The target in the next experiment is T4, HuCDCP1-A (human, UniProt Q9H5V8 30-430).
T4 construct: range 30-430; expressed in HEK-293T, purified by Fc/his tag; also called human CDCP1-A; membrane-distal region of CDCP1; not shown: Fc or his tag
T4 sequence (looked up): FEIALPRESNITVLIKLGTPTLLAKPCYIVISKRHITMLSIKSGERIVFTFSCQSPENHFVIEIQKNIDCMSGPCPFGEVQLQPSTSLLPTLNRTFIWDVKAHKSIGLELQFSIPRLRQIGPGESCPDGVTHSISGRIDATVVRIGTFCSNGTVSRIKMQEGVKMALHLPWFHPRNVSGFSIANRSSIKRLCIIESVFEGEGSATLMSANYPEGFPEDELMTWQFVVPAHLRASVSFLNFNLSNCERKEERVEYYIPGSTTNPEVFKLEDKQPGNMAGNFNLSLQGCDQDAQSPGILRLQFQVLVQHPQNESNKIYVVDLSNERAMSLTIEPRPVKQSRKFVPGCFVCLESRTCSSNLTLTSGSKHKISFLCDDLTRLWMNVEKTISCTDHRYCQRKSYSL
Here is the method: as §1, §2

B1: 1CP-124 (antibody, human IgG1, kappa, V domains shown)
VH: QVQLVQSGAEVKKPGASVKVSCKASGYNFISYWLHWVRQAPGQGLEWMGGIYPGNTDTTYNQKFKGRVTMTRDTSTSTVYMELSSLRSEDTAVYYCIRYDYDRGMDYWGQGTLVTVSS
VL: DIQMTQSPSSLSASVGDRVTITCRASEDIYYRLAWYQQKPGKAPKLLISGATALETGVPSRFSGSGSGKDYTFTISSLQPEDIATYYCQHYWNIPWTFGQGTKVEIKR
notes: humanized 3C11, human IgG1 kappa
As usually defined, the Kd is the concentration at which binding is half-saturated. As for B1, the Kd in the experiment with MsCDCP1 is 274 nM; with HuCDCP1-B it was 100 nM; with CynoCDCP1, 24.2 nM; with HuCDCP1-A, 132 nM.

B2: 1CP-129 (antibody, human IgG1, kappa, V domains shown)
VH: QVQLVQSGAEVKKPGASVKVSCKASGYNFISYWLHWVRQAPGQGLEWMGGIYPGNTDTTYNQKFKGRVTMTADTSTSTVYMELSSLRSEDTAVYYCIRYDYDRGMDYWGQGTLVTVSS
VL: DIQMTQSPSSLSASVGDRVTITCRASEDIYYRLAWYQQKPGKAPKLLISGATALETGVPSRFSGSGSGKDYTLTISSLQPEDIATYYCQHYWNIPWTFGQGTKVEIKR
notes: as for B1
For B2, the binding result with MsCDCP1 was “no binding (tested: 150 nM highest concentration)”. The Kd was 157 nM with HuCDCP1-B, 53.8 nM with CynoCDCP1 and 126 nM with HuCDCP1-A.

B3: 1CP-128 (antibody, human IgG1, kappa, V domains shown)
VH: QVQLVQSGAEVKKPGASVKVSCKASGYNFISYWLHWVRQAPGQGLEWMGGIYPGNTDTTYNQKFKGRVTMTRDTSTSTVYMELSSLRSEDTAVYYCIRYDYDRGMDYWGQGTLVTVSS
VL: DIQMTQSPSSLSASVGDRVTITCRASEDIYYRLAWYQQKPGKAPKLLISGATALETGVPSRFSGSGSGKDYTLTISSLQPEDIATYYCQHYWNIPWTFGQGTKVEIKR
notes: as for B1
For the molecule B3, the binding result with MsCDCP1 is listed as “no binding (tested: 150 nM highest concentration)”. Besides, the Kd with HuCDCP1-B turned out to be 109 nM; with CynoCDCP1, 47.5 nM; with HuCDCP1-A, 76 nM.

B4: 1CP-125 (antibody, human IgG1, kappa, V domains shown)
VH: QVQLVQSGAEVKKPGASVKVSCKASGYNFISYWLHWVRQAPGQGLEWMGGIYPGNTDTTYNQKFKGRVTMTADTSTSTVYMELSSLRSEDTAVYYCIRYDYDRGMDYWGQGTLVTVSS
VL: DIQMTQSPSSLSASVGDRVTITCRASEDIYYRLAWYQQKPGKAPKLLISGATALETGVPSRFSGSGSGKDYTFTISSLQPEDIATYYCQHYWNIPWTFGQGTKVEIKR
notes: as for B1
For the molecule B4, the binding result in the experiment with MsCDCP1 is given as “no binding (tested: 150 nM highest concentration)”. Also, the Kd in the experiment with HuCDCP1-B worked out at 55.1 nM; with CynoCDCP1, 2.27 nM; in the experiment with HuCDCP1-A, 559 nM.

B5: 1CP-117 (antibody, human IgG1, kappa, V domains shown)
VH: QVQLVQSGSELKKPGASVKVSCKASGYTLTDFSMHWVRQAPGQGLEWMGWINTETGAPTYADDFKGRFVLSLDTSVSTAYLQISSLKAEDTAVYYCSRGRDYDPHFDYWGQGTLVTVSS
VL: EIVLTQSPATLSLSPGERATLSCRASQSISDFLHWYQQKPGQSPRLLIKYASQSISGIPARFSGSGSGSDFTLTISSVEPEDFAVYYCQSAHSFPYTFGQGTKLEIKR
notes: humanized 8E5, human IgG1 kappa
Turning to B5, the Kd is 212 nM with MsCDCP1, 182 nM in the experiment with HuCDCP1-B, 1.84 nM with CynoCDCP1 and 76.5 nM with HuCDCP1-A.

B6: 1CP-121 (antibody, human IgG1, kappa, V domains shown)
VH: QVQLVQSGSELKKPGASVKVSCKASGYTLTDFSMHWVRQAPGQGLEWMGWINTETGAPTYADDFKGRFVLSLDTSVSTAYLQISSLKAEDTAVYYCSRGRDYDPHFDYWGQGTLVTVSS
VL: EIVLTQSPATLSLSPGERATLSCRASQSISDFLHWYQQKSGQSPRLLIKYASQSISGIPARFSGSGSGSDFTLTISSVEPEDFAVYYCQSAHSFPYTFGQGTKLEIKR
notes: as for B5
With B6, the Kd with MsCDCP1 is 141 nM; with HuCDCP1-B it was 131 nM; with CynoCDCP1 it was 1.51 nM; in the experiment with HuCDCP1-A, 99.8 nM.

B7: 1CP-152 (antibody, human IgG1, kappa, V domains shown)
VH: EVQLVESGGGLVQPGRSLRLSCTTSGLTFTHYHMSWVRQAPGKGLEWVAIIRNKAYGYTTDYSASVRGRFTISRDDSKSILYLQMNSLKTEDTAVYYCVREGGYGYDGTFAYWGQGTLVTVSS
VL: DIQMTQSPSSLSASVGDRVTITCRASESVDNYGISFMNWFQQKPGQAPKLLIYAASNQGSGVPSRFSGSGSGTDFTLTISSMQPEDFATYYCQQSKEVPRTFGGGTKVEIKR
notes: humanized 8C9, human IgG1 kappa
As for B7, the Kd with MsCDCP1 was found to be 745 nM; with HuCDCP1-B it was 110 nM; in the experiment with CynoCDCP1, 2.9 nM; in the experiment with HuCDCP1-A, 105 nM.

B8: 1CP-157 (antibody, human IgG1, kappa, V domains shown)
VH: EVQLVESGGGLVQPGRSLRLSCTTSGLTFTHYHMSWVRQAPGKGPEWVAIIRNKAYGYTTDYSASVRGRFTISRDDSKSILYLQMNSLKTEDTAVYYCVREGGYGYDGTFAYWGQGTLVTVSS
VL: DIQMTQSPSSLSASVGDRVTITCRASESVDNYGISFMNWFQQKPGQPPKLLIYAASNQGSGVPSRFSGSGSGTDFTLTISSMQPEDFATYYCQQSKEVPRTFGGGTKVEIKR
notes: as for B7
As to B8, the binding result with MsCDCP1 is reported as “no binding (tested: 150 nM highest concentration)”. Further, the dissociation constant (Kd) worked out at 359 nM with HuCDCP1-B, 2.6 nM with CynoCDCP1 and 226 nM in the experiment with HuCDCP1-A.
